# Reference: the RNAGym collection of RNA variant scans (doi:10.7554/elife.80360)
# B1: Hairpin Ribozyme (parent)
# chain: GUCCUCUUUCACGUGCGCGUGAAAGAGAGAAGUGAACCAGAGAAACACACGUUGUGGUAUAUUACCUGGUA
# Variants of: B1
# Test: self-cleavage, relative activity (ratio to wild type); higher = more cleavage; co-transcriptional
row,Variant,self-cleavage
1,G42C A47C,0.149
2,A41G G68A,0.55
3,G42A A49U,0.11
4,G42A A49C,0.168
5,A41U A49U,0.725
6,G42U G68U,0.14
7,A41G U58G,1.1
8,A41U G51A,1.11
9,A41U A59U,0.241
10,G42U A49U,0.24
11,G42U A64G,0.154
12,G42U A64U,0.186
13,G42U A64C,0.18
14,G42C G57A,0.1
15,G42C G57C,0.0624
16,A41U A44U,0.161
17,G42A G54A,0.153
18,G42A G54U,0.136
19,G42A G54C,0.168
20,G42A A43G,0.0927
21,A41G C46U,0.0954
22,A43C U60C,0.196
23,G42A G56A,0.191
24,G42A G56U,0.13

row,Variant,self-cleavage
1,A41G A59G,0.17
2,A41U U63C,0.248
3,A41U U63G,0.223
4,G42A A47U,0.0842
5,G42A U70A,0.0455
6,G42U U52C,0.4
7,G42U U52A,0.379
8,G42U U52G,0.135
9,G42A C46G,0.106
10,A41G C65G,1.13
11,G42A A44G,0.201
12,G42A A44C,0.27
13,G42A A44U,0.207
14,G42C A71C,0.664
15,A41U A61U,0.399
16,A41U A61G,0.148
17,A41G U60A,0.761
18,A41U G54A,1.03
19,A41U A71U,1.15
20,G42A A64G,0.141
21,A41G U70A,0.97
22,G42C U60A,0.133
23,G42C U60G,0.211
24,A43C A49G,0

row,Variant,self-cleavage
1,A43C A49C,0.199
2,A41U G42A,0.321
3,G42C C50G,0.0792
4,G42C C50U,0.0822
5,G42A A71G,0.296
6,A43C U62G,0.257
7,G42C G56U,0.117
8,A43C A45G,0.116
9,A43C A45U,0.203
10,G42U U63C,0.213
11,G42A U53A,0.184
12,A41U C50A,0.673
13,G42A C65A,0.0752
14,G42A C65G,0.132
15,G42A C65U,0.103
16,A41U G68A,0.504
17,A43C A71G,0.186
18,G42C U67C,0.137
19,G42C U63A,0.18
20,A41U U70C,1.42
21,G42C G51A,0.415
22,A41G C48A,0.0982
23,G42C U58G,0.289
24,A41U A43G,0.0919

row,Variant,self-cleavage
1,A41U A43C,0.231
2,G42C U52A,0.256
3,A41U U53A,1.28
4,A41U C46U,0.0994
5,G42U C65A,0.142
6,G42A,0.223
7,G42C,0.318
8,G42U,0.289
9,A41G G56C,0.165
10,A43C A64G,0.185
11,A43C A64C,0.0846
12,G42U C46G,0.156
13,G42C A43C,0.137
14,A43C A61G,0.147
15,G42A A59C,0.195
16,A43C C50U,0.13
17,A41G U55A,0.228
18,A41G A64U,0.206
19,A41G A64C,0.0864
20,G42C C65G,0.117
21,G42C C65U,0.215
22,G42U A44G,0.267
23,G42U C48G,0.134
24,A43C C65A,0.102

row,Variant,self-cleavage
1,A43C C65U,0.173
2,A43C C65G,0.0609
3,G42A G69U,0.219
4,G42A C50A,0.186
5,A43C C66A,0.0928
6,A43C G51A,0.0814
7,A43C G51C,0.193
8,A41G C50U,0.385
9,A41G C50G,0.325
10,A43C A59G,0.284
11,A43C U70A,0.0723
12,G42A G57U,0.0918
13,A41G U62G,0.325
14,G42U U70G,0.105
15,A43C A44U,0.171
16,G42C U53G,0.244
17,A43G A47U,0.131
18,A43G A44C,0.0882
19,A43C U67G,0.13
20,A43C U63G,0.117
21,G42U A61G,0.167
22,A41U A47C,0.955
23,G42A C48A,0.0835
24,G42U U53G,0.198

row,Variant,self-cleavage
1,G42A U58A,0.139
2,G42A U58G,0.17
3,A41G U52A,0.669
4,G42U A47G,0.107
5,G42U A47U,0.12
6,G42U A47C,0.22
7,A43C G57U,0.149
8,A43C C48A,0.135
9,G42C A64C,0.252
10,G42C A64U,0.0972
11,A41U U60C,1.24
12,A41G U67A,0.527
13,A41G G42U,0.236
14,A41U U52G,1.07
15,G42U G69A,0.142
16,G42U G69C,0.136
17,G42U G69U,0.136
18,A41U U67C,0.456
19,G42A G51A,0.25
20,G42A G51U,0.207
21,G42A G51C,0.21
22,G42C C46G,0.103
23,A41G U63A,0.328
24,A41U A45C,0.258

row,Variant,self-cleavage
1,G42U C66G,0.155
2,G42U C66U,0.232
3,G42U G56A,0.231
4,A43C A47G,0.0478
5,G42A U63A,0.174
6,G42A A45C,0.0962
7,A43G A59C,0.153
8,G42U U55C,0.155
9,G42U U55G,0.165
10,G42U U67C,0.131
11,A43C U55A,0.174
12,A43C U55C,0.201
13,G42C A49U,0.155
14,G42C A49G,0.244
15,G42A G68A,0.14
16,G42A G68C,0.15
17,G42A U62G,0.154
18,G42C A61C,0.133
19,A41U C65G,0.563
20,A43G A45U,0.0816
21,A41U C48A,0.31
22,A41U C48U,0.132
23,A41U G56C,0.149
